Data: PMC7337490

Target: survivin;borealin 10-109;INCENP 1-80 (CPI80) (human;human;human) (UniProt O15392+Q53HL2+Q9NQS7)
Assay: EMSA
Details: shift between 2 and 3 uM protein; 100 mM NaCl, 20 mM Tris-HCl pH 7.4, 1 mM DTT, 2 h on ice; MST 0.04 uM duplex, 0.1-200 uM protein; EMSA 0.15 pmol plasmid in 20 ul, 0.8% agarose

Chain of survivin;borealin 10-109;INCENP 1-80 (CPI80) (human;human;human) (O15392 whole entry, chain 1 of 3): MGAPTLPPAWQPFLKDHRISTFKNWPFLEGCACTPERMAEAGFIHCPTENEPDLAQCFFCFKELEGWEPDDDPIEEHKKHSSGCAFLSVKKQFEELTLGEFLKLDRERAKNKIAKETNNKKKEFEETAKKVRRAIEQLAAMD
Chain of survivin;borealin 10-109;INCENP 1-80 (CPI80) (human;human;human) (Q53HL2 10-109, chain 2 of 3): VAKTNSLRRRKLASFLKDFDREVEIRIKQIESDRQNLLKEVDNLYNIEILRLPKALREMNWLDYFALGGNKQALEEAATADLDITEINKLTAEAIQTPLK
Chain of survivin;borealin 10-109;INCENP 1-80 (CPI80) (human;human;human) (Q9NQS7 1-80, chain 3 of 3): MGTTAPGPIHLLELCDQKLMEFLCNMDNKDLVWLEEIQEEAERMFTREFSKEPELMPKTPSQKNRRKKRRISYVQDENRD

Substance: BamHI-linearized pBluescript (2.9 kb)
- K half: 3000 nM
